T1: syndecan-1 (Homo sapiens, UniProt P18827)
T1 construct: expressed in transfected cells; host or cells: HEK293 (syndecan-1); E. coli ER2566 (lacritin-intein)
T1 sequence (P18827 23-310): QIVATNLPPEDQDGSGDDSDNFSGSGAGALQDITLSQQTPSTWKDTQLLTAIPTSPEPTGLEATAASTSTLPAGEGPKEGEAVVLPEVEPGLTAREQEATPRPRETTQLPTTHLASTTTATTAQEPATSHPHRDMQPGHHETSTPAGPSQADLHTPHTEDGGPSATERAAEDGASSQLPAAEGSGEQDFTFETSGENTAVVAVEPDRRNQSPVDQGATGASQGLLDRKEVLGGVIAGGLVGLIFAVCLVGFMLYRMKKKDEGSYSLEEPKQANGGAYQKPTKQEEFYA

B1: N-24: deletion mutant comprising a deletion of the 24 amino terminal amino acids of lacritin (protein)
chain: DSTGADPAQEAGTSKPNEEISGPAEPASPPETTTTAQETSAAAVQGTAKVTSSRQELNPLKSIVEKSILLTEQALAKAGKGMHGGVPGGKQFIENGSEFAQKLLKKFSLLKPWA
modifications: homo sapiens
notes: deletion mutant comprising a deletion of the 24 amino terminal amino acids of lacritin
B2: lacritin: recombinant human lacritin from E. coli; mature 119 residue fragment (SEQ ID NO:10) of native lacritin SEQ ID NO:4 (protein, listed as Homo sapiens)
chain: EDASSDSTGADPAQEAGTSKPNEEISGPAEPASPPETTTTAQETSAAAVQGTAKVTSSRQELNPLKSIVEKSILLTEQALAKAGKGMHGGVPGGKQFIENGSEFAQKLLKKFSLLKPWA

Experiments:
caspase-9 = assay: Caspase-9 activity in human corneal epithelial cells treated with TNF-α; format: cell-based; details: lacritin polypeptides 10 nM
Method: FIG. 13 graphically illustrates the ability of lacritin polypeptides (10 nM) to block TNFα induced caspase-9 activity in human corneal epithelial cells. The ordinate represents relative fluorescence units. White bars indicate 6 hours and diagonally-hatched bars indicate 9 hours.
Caspase-9 activity was measured in cells treated with various combinations of TNF-α, fragments of lacritin, and the PKC inhibitor Go6976. […] The PKC-α inhibitor Go6976 and C-25 fail to block this increase of the downstream initiator caspase-9.

HSG cells = assay: Calcium mobilization imaging in HSG cells (Fluo-4); format: cell-based, human
Method: Cells were seeded at 1.4×10^4 HSG cells/mm^2 or 0.7×10^4 HSG cells/mm^2 on Matrigel-coated (100 μg/ml; BD Biosciences; San Diego Calif.) coverslips to respectively achieve 70-80% confluency after overnight or 48 h growth in 6-well plates containing phenol red-free Dulbecco's modified Eagle's medium with 10% fetal calf serum.
Other cells were incubated (0.7×10^4HSG cells/mm^2 overnight plating) with 100 ng/ml pertussis toxin (Calbiochem; San Diego Calif.) in phenol red-free Dulbecco's modified Eagle's medium with 10% fetal calf serum; or vehicle alone). Cells were washed with calcium-free/phenol red-free Hanks basic salt solution, 20 mM N-2-hydroxyethylpiperazine-N′-2-ethane sulfonic acid and then incubated for 1 h at room temperature with the same solution containing fluo-4 μM at 4 μM (FluoroPure grade [Molecular Probes; Eugene Oreg.] dissolved in DMSO plus 20% Pluronic F-127). Cells were washed three times for 60 min at room temperature with calcium-free/phenol red-free Hanks basic salt solution with 5 mM Ca^2+ or 5 mM EGTA. Temperature was stabilized for 5 min at 37° C. coverslips were placed on the stage of a TE-200 epifluorescent microscope (Bio-Rad Radiance2100 confocal/multiphoton system using Plan Fluor 60×NA 1.4 Oil IR objective lens [Bio-Rad, Hercules Calif.] as part of the W. M. Keck Center for Cellular Imaging, University of Virginia), subjected to a 488 nm argon laser light source with emission at 528 nm. Baseline monitoring was followed by addition of lacritin or deletion fragments in phenol red-free Hanks basic salt solution.

[1] = test system: human salivary ductal (HSG) cells; assay: 3H-thymidine uptake mitogenesis assay; format: cell-based
Method: For phosphotyrosine blotting and mitogenesis assays, cells in serum-containing media were seeded overnight in 24-well plates at a density of 0.5×10^5 cells/mm^2 corresponding to 20-30% confluency after cell attachment, incubated in serum-free media without supplements for 24 h (phosphotyrosine) or washed with serum-free media without supplements three times (mitogenesis) and incubated with lacritin (1-1000 nM), or positive controls EGF (1.6 nM) and 10% fetal bovine serum, or negative controls bovine serum albumin or no additive in serum-free media without supplements for the indicated times (phosphotyrosine) or 30 h (mitogenesis). For phosphotyrosine assays, cells were extracted in 1% NP40 containing sodium vanadate (2 mg/ml), DTT (5 mg/ml), protease inhibitors, 50 mM HEPES, 100 mM NaCl, and 2 mM EDTA; then separated by 10% SDS PAGE, transferred and blotted. The following antibodies (Cell Signaling Technology, Beverly Mass.) were tested: antiphosphotyrosine antibody (P-Tyr-100), anti-phospho-PKC αβII, anti-PKCα, anti-phospho-PKCδ, anti-phospho-PKC (pan), anti-p44/42 MAPK, anti-phospho-Raf, anti-phospho-SAPK/JNK, anti-phospho-p38 Map kinase, anti-phospho-Raf, anti-phospho-Akt, anti-phospho-CaMKII, anti-phospho-MARCKS, or anti-tubulin (loading control). After washing, bound antibodies were detected with peroxidase-labeled secondary antibody and ECL. With the exception of at least nine proteins in the P-Tyr-100 blot (FIG. 1), none of the effectors tested above appeared to be phospho-activated during lacritin signaling (not shown). For mitogenesis (Hussaini et al., '00), [^3H]-thymidine (2 mCi/ml) was added for the next 6 h. Incorporation was stopped with ice-cold phosphate buffered saline and followed by addition of cold and then room temperature trichloracetic acid (10%) for 10 min each, washing of cells with phosphate buffered saline, solubilization with 1 N sodium hydroxide, neutralization with 1 N hydrochloric acid, addition of scintillation fluid and then quantitation in a scintillation counter. To deplete PKCα in HSG cells, a pool of four PKCα-specific siRNAs (100 nM) were transfected via LipofectAMINE 2000 in Opti-MEMI Reduced Serum Medium (Invitrogen, Grand Island N.Y.) without serum and antibiotics according to manufacturer's instructions. Each of the four siRNAs was also individually transfected. In negative controls, cells were transfected with a pool of four lamin-specific siRNAs (Upstate LLC, Charlottesville Va.; Dharmacon Inc, Lafayette Colo.). Seventy-two hours post-transfection, mitogenesis was assessed by co-addition of 10 […] lacritin and [^3H]-thymidine (2 mCi/ml) (Amersham, Piscataway N.J.) for 24 hrs. PKCα depletion was confirmed by Western blotting.

syndecan-1 = molecular target: T1, syndecan-1; assay: Competitive binding assay of lacritin-syndecan-1 binding; details: competitive binding assays
Description: Biotinylated cell surface proteins were applied to lacritin affinity columns. After washing extensively in physiological salt-containing buffer, bound protein was eluted with 1 M NaCl, and identified with avidin-peroxidase using an ECL blot method. In controls, columns lacking lacritin were used. […] 293T cells stably transfected with human syndecan-2 or −4 were kindly provided by Dr. Atsushi Utani (Chiba University). A series of lacritin C-terminal and N-terminal deletion mutants were generated. Pull down binding assays involved incubation of intein-tagged lacritin or intein deletion mutants with lysates of untransfected or transfected cells followed by precipitation and SDS PAGE. Immunolocalization of syndecan-1 in human lacrimal glands was performed using anti-human syndecan-1 antibody (CD138).
The first of approximately four bands repeatedly eluted from lacritin affinity column was determined by sequencing to be syndecan-1. In pull-down assays, lacritin bound mammalian syndecan-1, but not syndecan-2 or 4. The binding appeared to be independent of heparan sulfate side chains, in keeping with lack of lacritin binding to heparin (previously known). Deletion of lacritin's C-terminal 25 but not N-terminal 5, 10, or 24 amino acids eliminated binding. […] Syndecan-1 was detected in ‘near apical’ and basolateral plasma membranes in human lacrimal gland.

Molecule | effect on TNF-α-induced caspase-9 activity (caspase-9) | effect on Ca++ signaling after lacritin stimulation (HSG cells; Example 4) | effect on carbachol-stimulated calcium mobilization (HSG cells; U73122 1 μM, Go 6976 1 μM, even at 10 μM) | effect on lacritin-stimulated calcium mobilization (HSG cells; preincubation: pertussis toxin 100 ng/ml, U73122 1 μM, Go 6976 1 μM, or siRNA) | mitogenic activity of deletion constructs ([1]; 10 nM, compared to intact lacritin) | inhibition of binding (syndecan-1) | proliferation in nominally calcium-free medium [1] | time to detectable 3H-thymidine uptake ([1]; not shown) | level of proliferation at optimal dose ([1]; vs 10% FBS positive control) | calcium mobilization (HSG cells; 10 nM) | calcium mobilization in EGTA-containing medium (HSG cells; 10 nM lacritin) | time to calcium mobilization after addition (HSG cells; lacritin 10 nM)
Cn1c2ccccc2c2c3c(c4c5ccccc5n(CCC#N)c4c21)CNC3=O [Go 6976] | fail to block | suppress Ca++ signaling | unaffected | completely inhibited |  |  |  |  |  |  |  | 
B1 | blocked |  |  |  | active | inhibited binding |  |  |  |  |  | 
B2 | blocked |  |  |  |  | inhibited binding | proliferated in a bell-shaped lacritin dose-dependent manner | Within two hours | matching the FBS positive control | promotes calcium mobilization | mobilized internal calcium | ≤ 30 s

Source: patent US7648964B2, “Use of lacritin in promoting ocular cell survival” (University of Virginia Patent Foundation, priority 2004, dated 2010)
